The values below come from article PMC8647145, “Foxd3 controls heterochromatin‐mediated repression of repeat elements and 2‐cell state transcription”.

B1: Hprt (dsDNA)
DNA 1: AGGGCGGGCCGAGGGGCGGAGCCTGGCCGGCAGCG
DNA 2: CGCTGCCGGCCAGGCTCCGCCCCTCGGCCCGCCCT
B2: L1MdA (dsDNA)
DNA 1: GTACATAGGGAAGCAGGCTACCCGGGCCTGATCTG
DNA 2: CAGATCAGGCCCGGGTAGCCTGCTTCCCTATGTAC
B3: MSR_MUT (dsDNA)
DNA 1: CTGAAAATCATGGAAAATGCGTGACGGCGACTTGA
DNA 2: TCAAGTCGCCGTCACGCATTTTCCATGATTTTCAG
B4: MERVL-LTR_MUT (dsDNA)
DNA 1: CAGCTGTGTTCTAAGTGGTACACGCCTAATCTGCG
DNA 2: CGCAGATTAGGCGTGTACCACTTAGAACACAGCTG
B5: MSR (dsDNA)
DNA 1: CTGAAAATCATGGAAAATGAGAAACATCCACTTGA
DNA 2: TCAAGTGGATGTTTCTCATTTTCCATGATTTTCAG
B6: Sox15 (dsDNA)
DNA 1: CAGAGGCTACTCTGAAACAAATAAAGAGATATAAA
DNA 2: TTTATATCTCTTTATTTGTTTCAGAGTAGCCTCTG
B7: MERVL-LTR (dsDNA)
DNA 1: CAGCTGTGTTCTAAGTGGTAAACAAATAATCTGCG
DNA 2: CGCAGATTATTTGTTTACCACTTAGAACACAGCTG
B8: MERVL-int (dsDNA)
DNA 1: CCATCTTTTGATAAACACCTCAGCCAACCATTCAA
DNA 2: TTGAATGGTTGGCTGAGGTGTTTATCAAAAGATGG

The target in one data set is T1, GST-FOXD3 (mouse, UniProt Q61060 1-465).
T1 sequence: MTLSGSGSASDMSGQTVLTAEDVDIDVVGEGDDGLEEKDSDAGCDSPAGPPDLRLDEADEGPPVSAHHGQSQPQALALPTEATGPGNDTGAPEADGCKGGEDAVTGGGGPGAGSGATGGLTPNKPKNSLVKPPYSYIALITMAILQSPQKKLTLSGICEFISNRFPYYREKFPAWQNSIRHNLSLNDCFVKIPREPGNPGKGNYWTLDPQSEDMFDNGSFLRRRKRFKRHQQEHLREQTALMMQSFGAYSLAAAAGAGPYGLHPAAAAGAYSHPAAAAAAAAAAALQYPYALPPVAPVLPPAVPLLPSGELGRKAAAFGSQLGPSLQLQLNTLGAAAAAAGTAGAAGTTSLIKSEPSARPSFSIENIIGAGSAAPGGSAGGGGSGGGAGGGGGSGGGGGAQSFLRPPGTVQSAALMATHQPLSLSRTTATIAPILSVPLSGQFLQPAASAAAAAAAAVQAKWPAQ
Kind of data set: EMSA; up to 2.5 uM protein; EMSA: 50 nM DNA, 20 mM Tris-HCl pH 8.0, 100 mM KCl, 3 mM MgCl2, 1 mM EDTA, 5% glycerol, 0.05% NP-40, 2 mM DTT, 50 ng/ml yeast tRNA, 2.5 ng/ml BSA, 4 C, 1 h. As to conditions: protein: recombinant; tags: N-terminal GST (pGEX-6P1); label: 5'-Cy5; blunt.
With B1, the binding result is “no binding”.
The same measure, in the same setting: the value for B2 was “no binding”.
Consider B3, for which the binding result is on record as “no binding”.
Take B4: the binding result is “no binding”.

Another data set addresses T1, GST-FOXD3. The data set can be described thus: EMSA; EMSA: 50 nM DNA, 20 mM Tris-HCl pH 8.0, 100 mM KCl, 3 mM MgCl2, 1 mM EDTA, 5% glycerol, 0.05% NP-40, 2 mM DTT, 50 ng/ml yeast tRNA, 2.5 ng/ml BSA, 4 C, 1 h. To be noted: protein: recombinant; tags: N-terminal GST (pGEX-6P1); label: 5'-Cy5; blunt. For orientation: Mobility shift assays separate free from complexed probe on a gel.
Regarding B5, the binding result is “binds”.
Consider B6, for which the binding result was “binds”.
Same read-out and setting: the result for B7 reads “binds”; that for B8, “binds”.
